{
  "source": "paper PMC3409459",
  "about": "“Absorption, distribution, metabolism and excretion of peginesatide, a novel erythropoiesis-stimulating agent, in rats” (Xenobiotica; the Fate of Foreign Compounds in Biological …, 2011)",
  "assay": "Quantitative whole body autoradiography (QWBA) tissue distribution",
  "assay_type": "in vivo, male Sprague-Dawley rats",
  "settings": "for the radiolabel distribution and QWBA studies",
  "procedure": "Tissue distribution of radioactivity was assessed by quantitative whole-body autoradiography (QWBA) in addition to determination of radioactivity tissue levels by LSC. At various time points following the administration of the desired QWBA target dose of 100 uCi/kg [^14C]-peginesatide, equating to a 17mg/kg dose of peginesatide, the rats were anesthetized with isoflurane and blood (−3-4 mL) was collected via cardiac puncture. Anesthetized rats were sacrificed by immersion in a hexane dryicebath. Carcasseswere embedded in 2% carboxymethylceilulose over solid CO2 to ensure the block was retained frozen, and then stored at −20°C until sectioning. In addition, ^14C radioactivity standards were embedded with each carcass to provide a context for quantification and for quality control purposes.\nSamples were sectioned onto adhesive tape (Nakagawa NA-70 MAG, Japan) at five levels of interest in the sagittal plane, with all major tissues, organs, and biological fluids represented. […] To quantitate radioactivity in tissues, a calibration standard curve was constructed using American Radiolabeled Chemicals, Inc ARC 146 standards. The autoradiographic image data for the calibration standards and specified tissues, organs, and fluids were quantified using Imaging Research Inc. AIS software. […]",
  "data": [
    {"substance": "Peginesatide", "values": [
      {"measurement": "bone marrow to bone ratios", "result": "11-25"}
    ]}
  ]
}
